# From patent US20200262877A1, “ION CHANNEL-BINDING PEPTIDES AND METHODS OF USE THEREOF” (priority 2017, published 2020)
# What was measured:
# GABA = test: Ion channel panel (IonWorks Barracuda): GABA; format: cell-based; conditions: 100% = no change, <100% = inhibition
# How it was run: (§1)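 Transfected HEK293 or CHO cells were exposed for at least 5 min to peptides at 200 nM and 20 μM final, tested in duplicate, in HEPES-buffered physiological saline. Activation was taken as peptide-plus-agonist current over control current ×100, and inhibition as 1 minus that ratio ×100. Each channel's control was its own reference compound.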
# Kir2.1 = target: T1, Kir2.1 (Homo sapiens, UniProt P63252); test: Ion channel panel (IonWorks Barracuda): Kir2.1; format: cell-based; conditions: 100% = no change, <100% = inhibition
# T1 construct: host or cells: HEK293 or CHO
# How it was run: as §1
# 5HT3a = target: T2, 5HT3a (Homo sapiens, UniProt P46098); test: Ion channel panel (IonWorks Barracuda): 5HT3a; format: cell-based
# T2 construct: host or cells: HEK293 or CHO
# T2 sequence (P46098 whole entry, looked up): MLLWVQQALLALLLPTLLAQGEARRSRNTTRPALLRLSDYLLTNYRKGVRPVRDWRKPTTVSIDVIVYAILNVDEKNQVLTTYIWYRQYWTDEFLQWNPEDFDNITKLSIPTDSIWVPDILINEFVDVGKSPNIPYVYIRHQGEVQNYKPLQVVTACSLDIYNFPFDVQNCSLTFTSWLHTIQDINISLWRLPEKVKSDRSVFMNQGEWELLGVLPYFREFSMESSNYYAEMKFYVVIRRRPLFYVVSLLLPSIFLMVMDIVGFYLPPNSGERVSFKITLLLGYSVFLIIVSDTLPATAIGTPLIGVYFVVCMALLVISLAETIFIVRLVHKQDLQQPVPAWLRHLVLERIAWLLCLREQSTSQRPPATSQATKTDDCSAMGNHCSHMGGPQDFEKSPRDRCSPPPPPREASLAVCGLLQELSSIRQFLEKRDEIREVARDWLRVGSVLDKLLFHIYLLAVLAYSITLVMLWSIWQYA
# How it was run: as §1
# α3β4 = target: T3, α3β4 (Homo sapiens, UniProt P30926+P32297); test: Ion channel panel (IonWorks Barracuda): α3β4; format: cell-based; conditions: 100% = no change, <100% = inhibition
# T3 construct: host or cells: HEK293 or CHO
# How it was run: as §1
# NR2B = target: T4, NR2B (Homo sapiens, UniProt Q13224); test: Ion channel panel (IonWorks Barracuda): NR2B; format: cell-based; conditions: 100% = no change, <100% = inhibition
# T4 construct: host or cells: HEK293 or CHO
# How it was run: as §1
# Nav1.7 = target: T5, Nav1.7 (Homo sapiens, UniProt Q15858); test: cell-based; format: cell-based; conditions: 100% = no change; for Activity of Nav1.7 with peptide, expressed as a percentage of the reference compound: peptide at 0.2 μM; for Activity of Nav1.7 with peptide (percentage of the reference compound): peptide at 20 μM
# T5 construct: host or cells: HEK293 or CHO
# T5 sequence (Q15858 whole entry): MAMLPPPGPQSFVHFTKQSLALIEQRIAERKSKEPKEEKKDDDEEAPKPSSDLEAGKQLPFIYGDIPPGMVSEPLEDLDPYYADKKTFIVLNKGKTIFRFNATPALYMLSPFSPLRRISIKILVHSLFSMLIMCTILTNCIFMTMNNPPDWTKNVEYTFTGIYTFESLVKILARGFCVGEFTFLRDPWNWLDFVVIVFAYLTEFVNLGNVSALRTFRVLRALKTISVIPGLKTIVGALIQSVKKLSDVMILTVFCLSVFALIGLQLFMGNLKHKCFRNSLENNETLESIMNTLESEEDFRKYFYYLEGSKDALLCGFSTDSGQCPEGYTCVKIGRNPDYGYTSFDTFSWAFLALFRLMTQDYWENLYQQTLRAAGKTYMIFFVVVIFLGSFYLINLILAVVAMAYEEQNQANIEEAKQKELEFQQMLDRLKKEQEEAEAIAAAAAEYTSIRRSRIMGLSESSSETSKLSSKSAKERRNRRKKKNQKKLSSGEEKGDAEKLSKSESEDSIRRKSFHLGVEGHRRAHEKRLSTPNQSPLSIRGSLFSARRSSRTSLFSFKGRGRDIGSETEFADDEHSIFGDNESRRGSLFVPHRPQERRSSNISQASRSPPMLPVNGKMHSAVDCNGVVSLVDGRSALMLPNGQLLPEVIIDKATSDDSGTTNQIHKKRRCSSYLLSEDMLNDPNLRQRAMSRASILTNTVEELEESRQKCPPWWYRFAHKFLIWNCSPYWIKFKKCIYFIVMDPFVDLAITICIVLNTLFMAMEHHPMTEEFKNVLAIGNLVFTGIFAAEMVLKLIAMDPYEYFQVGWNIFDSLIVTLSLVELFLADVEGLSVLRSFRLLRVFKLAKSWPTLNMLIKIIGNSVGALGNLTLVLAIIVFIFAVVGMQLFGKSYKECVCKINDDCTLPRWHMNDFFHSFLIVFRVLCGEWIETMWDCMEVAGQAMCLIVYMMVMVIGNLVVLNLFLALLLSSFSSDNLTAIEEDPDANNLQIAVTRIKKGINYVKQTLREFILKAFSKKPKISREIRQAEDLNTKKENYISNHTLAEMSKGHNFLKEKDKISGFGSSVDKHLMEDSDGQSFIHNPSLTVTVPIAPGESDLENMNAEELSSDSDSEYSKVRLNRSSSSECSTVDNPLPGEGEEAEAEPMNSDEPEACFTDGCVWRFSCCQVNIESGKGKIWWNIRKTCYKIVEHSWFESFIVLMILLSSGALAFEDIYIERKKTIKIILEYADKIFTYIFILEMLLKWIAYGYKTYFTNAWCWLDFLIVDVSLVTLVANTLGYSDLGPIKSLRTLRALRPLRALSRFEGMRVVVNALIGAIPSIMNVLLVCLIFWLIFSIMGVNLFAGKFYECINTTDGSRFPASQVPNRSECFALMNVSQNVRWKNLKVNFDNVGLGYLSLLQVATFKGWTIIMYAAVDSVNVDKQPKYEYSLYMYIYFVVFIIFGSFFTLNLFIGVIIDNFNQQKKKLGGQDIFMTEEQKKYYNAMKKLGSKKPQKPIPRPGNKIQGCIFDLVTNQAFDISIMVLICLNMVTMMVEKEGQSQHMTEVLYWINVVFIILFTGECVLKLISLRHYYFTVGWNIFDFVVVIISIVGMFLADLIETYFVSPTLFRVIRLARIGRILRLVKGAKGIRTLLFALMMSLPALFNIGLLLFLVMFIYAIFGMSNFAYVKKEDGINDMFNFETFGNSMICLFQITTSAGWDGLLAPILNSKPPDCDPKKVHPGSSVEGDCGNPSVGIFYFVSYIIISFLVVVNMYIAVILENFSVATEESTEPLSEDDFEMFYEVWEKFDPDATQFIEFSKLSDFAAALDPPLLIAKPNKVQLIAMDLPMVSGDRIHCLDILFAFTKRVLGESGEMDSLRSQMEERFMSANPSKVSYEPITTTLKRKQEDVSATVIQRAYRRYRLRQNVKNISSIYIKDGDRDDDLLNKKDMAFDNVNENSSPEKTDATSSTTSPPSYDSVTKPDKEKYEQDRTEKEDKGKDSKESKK
# TRPA1 = target: T6, TRPA1 (Homo sapiens, UniProt O75762); test: Ion channel panel (IonWorks Barracuda): TRPA1; format: cell-based; conditions: 100% = no change, <100% = inhibition
# T6 construct: host or cells: HEK293 or CHO
# How it was run: as §1
# Kv1.2 = target: T7, Kv1.2 (Homo sapiens, UniProt P16389); test: cell-based; format: cell-based; conditions: 100% = no change, <100% = inhibition
# T7 construct: host or cells: HEK293 or CHO
# How it was run: as §1
# Kv1.3 = target: T8, Kv1.3 (Homo sapiens, UniProt P22001); test: cell-based; format: cell-based; conditions: 100% = no change, <100% = inhibition
# T8 construct: host or cells: HEK293 or CHO
# How it was run: as §1
# Kv1.1 = target: T9, Kv1.1 (Homo sapiens, UniProt Q09470); test: cell-based; format: cell-based; conditions: 100% = no change, <100% = inhibition
# T9 construct: host or cells: HEK293 or CHO
# How it was run: as §1
# α4β2 = target: T10, α4β2 (Homo sapiens, UniProt P17787+P43681); test: Ion channel panel (IonWorks Barracuda): α4β2; format: cell-based; conditions: 100% = no change, <100% = inhibition
# T10 construct: host or cells: HEK293 or CHO
# How it was run: as §1
# Nav1.5 = Nav1.5 (Homo sapiens, UniProt Q14524); test: in vitro; conditions: 100% = no change; for Activity of Nav1.5 with peptide, expressed as a percentage of the reference compound: peptide at 0.2 μM; for Activity of Nav1.5 with peptide (percentage of the reference compound): peptide at 20 μM
# Sequence of Nav1.5 (Q14524 whole entry): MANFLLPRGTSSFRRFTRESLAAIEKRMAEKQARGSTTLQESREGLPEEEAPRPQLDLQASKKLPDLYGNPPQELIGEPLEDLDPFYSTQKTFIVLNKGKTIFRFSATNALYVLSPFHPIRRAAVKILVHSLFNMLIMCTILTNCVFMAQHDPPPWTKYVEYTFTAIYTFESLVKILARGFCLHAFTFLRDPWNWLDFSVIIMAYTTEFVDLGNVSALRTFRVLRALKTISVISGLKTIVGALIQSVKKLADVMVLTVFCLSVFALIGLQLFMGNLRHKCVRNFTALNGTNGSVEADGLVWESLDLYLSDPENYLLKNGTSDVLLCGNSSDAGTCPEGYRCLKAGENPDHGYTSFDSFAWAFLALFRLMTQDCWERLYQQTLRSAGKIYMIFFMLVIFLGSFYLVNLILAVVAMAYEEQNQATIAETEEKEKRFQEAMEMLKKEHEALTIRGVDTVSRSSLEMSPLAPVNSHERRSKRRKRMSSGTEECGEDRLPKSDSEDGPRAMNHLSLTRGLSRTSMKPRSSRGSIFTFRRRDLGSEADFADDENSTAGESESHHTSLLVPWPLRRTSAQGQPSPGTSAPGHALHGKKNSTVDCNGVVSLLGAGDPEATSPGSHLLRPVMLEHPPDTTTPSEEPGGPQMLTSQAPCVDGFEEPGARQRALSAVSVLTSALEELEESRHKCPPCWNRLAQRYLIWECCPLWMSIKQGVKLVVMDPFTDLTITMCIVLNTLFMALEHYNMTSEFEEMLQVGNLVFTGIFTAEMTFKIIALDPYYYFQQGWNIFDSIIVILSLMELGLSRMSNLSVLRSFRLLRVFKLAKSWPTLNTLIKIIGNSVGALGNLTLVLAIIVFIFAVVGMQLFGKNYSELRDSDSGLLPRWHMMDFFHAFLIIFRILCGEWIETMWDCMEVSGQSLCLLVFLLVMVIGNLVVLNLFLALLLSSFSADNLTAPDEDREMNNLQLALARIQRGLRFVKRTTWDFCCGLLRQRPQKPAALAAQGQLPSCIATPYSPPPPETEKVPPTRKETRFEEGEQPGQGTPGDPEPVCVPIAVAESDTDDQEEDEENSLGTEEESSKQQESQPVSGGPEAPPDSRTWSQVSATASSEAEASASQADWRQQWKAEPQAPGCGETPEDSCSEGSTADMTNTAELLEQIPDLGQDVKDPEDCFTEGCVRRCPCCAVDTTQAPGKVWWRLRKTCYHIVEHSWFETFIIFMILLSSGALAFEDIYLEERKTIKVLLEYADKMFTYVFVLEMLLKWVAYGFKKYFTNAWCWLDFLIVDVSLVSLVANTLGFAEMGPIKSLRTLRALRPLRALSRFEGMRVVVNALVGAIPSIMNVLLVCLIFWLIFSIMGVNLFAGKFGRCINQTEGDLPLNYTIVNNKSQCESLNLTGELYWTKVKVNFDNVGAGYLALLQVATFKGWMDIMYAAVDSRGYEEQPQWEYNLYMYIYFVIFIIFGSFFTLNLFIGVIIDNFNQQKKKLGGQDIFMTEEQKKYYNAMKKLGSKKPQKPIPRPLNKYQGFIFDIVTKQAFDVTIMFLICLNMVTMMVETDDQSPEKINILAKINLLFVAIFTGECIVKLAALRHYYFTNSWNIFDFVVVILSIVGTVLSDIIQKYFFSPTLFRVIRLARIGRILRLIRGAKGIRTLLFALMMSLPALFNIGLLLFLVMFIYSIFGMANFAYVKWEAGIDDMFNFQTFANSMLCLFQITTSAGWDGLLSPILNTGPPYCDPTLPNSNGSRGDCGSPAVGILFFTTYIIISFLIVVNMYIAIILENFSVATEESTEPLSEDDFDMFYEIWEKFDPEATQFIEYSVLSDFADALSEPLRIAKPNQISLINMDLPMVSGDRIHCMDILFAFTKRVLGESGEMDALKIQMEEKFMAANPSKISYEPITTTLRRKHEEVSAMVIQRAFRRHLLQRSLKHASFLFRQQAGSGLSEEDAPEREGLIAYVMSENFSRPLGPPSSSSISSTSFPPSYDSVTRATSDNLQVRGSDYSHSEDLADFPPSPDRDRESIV
# How it was run: as §1
# hERG = hERG (Homo sapiens, UniProt Q12809); test: in vitro; conditions: 100% = no change, <100% = inhibition
# How it was run: as §1
# Cav2.2 = target: T11, Cav2.2 (Homo sapiens, UniProt Q00975); test: cell-based; conditions: 100% = no change, <100% = inhibition
# T11 construct: host or cells: HEK293 or CHO
# How it was run: as §1
# Kv2.1 = target: T12, Kv2.1 (Homo sapiens, UniProt Q14721); test: cell-based; conditions: 100% = no change, <100% = inhibition
# T12 construct: host or cells: HEK293 or CHO
# How it was run: as §1
# Cav2.1 = target: T13, Cav2.1 (Homo sapiens, UniProt O00555); test: cell-based; conditions: 100% = no change, <100% = inhibition
# T13 construct: host or cells: HEK293 or CHO
# How it was run: as §1
# NR2A = target: T14, NR2A (Homo sapiens, UniProt Q12879); test: Ion channel panel (IonWorks Barracuda): NR2A; format: cell-based; conditions: 100% = no change, <100% = inhibition
# T14 construct: host or cells: HEK293 or CHO
# How it was run: as §1
# TRPV1 = target: T15, TRPV1 (Homo sapiens, UniProt Q8NER1); test: Ion channel panel (IonWorks Barracuda): TRPV1; format: cell-based; conditions: 100% = no change, <100% = inhibition
# T15 construct: host or cells: HEK293 or CHO
# T15 sequence (Q8NER1 whole entry): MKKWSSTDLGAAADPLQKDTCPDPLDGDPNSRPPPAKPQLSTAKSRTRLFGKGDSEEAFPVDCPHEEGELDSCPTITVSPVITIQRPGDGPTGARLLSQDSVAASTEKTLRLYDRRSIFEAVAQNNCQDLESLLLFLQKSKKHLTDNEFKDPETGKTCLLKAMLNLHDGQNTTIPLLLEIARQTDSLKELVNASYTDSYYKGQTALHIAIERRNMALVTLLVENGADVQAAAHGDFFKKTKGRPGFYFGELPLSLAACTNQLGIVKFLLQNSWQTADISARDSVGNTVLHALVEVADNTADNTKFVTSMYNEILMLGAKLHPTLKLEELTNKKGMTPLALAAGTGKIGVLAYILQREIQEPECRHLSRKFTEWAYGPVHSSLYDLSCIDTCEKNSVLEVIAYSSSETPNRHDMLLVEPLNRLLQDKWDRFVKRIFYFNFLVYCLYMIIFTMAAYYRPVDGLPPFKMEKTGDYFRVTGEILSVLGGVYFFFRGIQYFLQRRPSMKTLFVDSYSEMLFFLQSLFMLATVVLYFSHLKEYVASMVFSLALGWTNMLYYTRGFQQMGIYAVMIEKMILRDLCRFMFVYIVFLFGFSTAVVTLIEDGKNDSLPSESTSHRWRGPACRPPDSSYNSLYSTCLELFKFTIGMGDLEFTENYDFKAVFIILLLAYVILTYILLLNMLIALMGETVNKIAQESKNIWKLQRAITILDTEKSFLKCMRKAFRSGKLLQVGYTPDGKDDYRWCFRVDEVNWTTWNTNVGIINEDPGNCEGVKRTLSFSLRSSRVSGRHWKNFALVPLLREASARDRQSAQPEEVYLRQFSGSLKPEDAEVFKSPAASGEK
# How it was run: as §1
# [1] = first of two Nav1.7 columns (probably TP1)
# [2] = second of two Nav1.7 columns (probably TP2)
# [3] = first of two Nav1.5 columns (probably TP1)
# [4] = second of two Nav1.5 columns (probably TP2)
substance,measurement,setting,value
2 (GSEVIRCSGSKQCYGPCKQQTGCTNSKCMNKVCKCYGCG) [compound 2],"Activity of GABA with peptide, expressed as a percentage of the reference compound",GABA; peptide at 0.2 μM,104%
same,Activity of GABA with peptide (percentage of the reference compound),GABA; peptide at 20 μM,97%
same,"Activity of Kir2.1 with peptide, expressed as a percentage of the reference compound",Kir2.1; peptide at 0.2 μM,101%
same,Activity of Kir2.1 with peptide (percentage of the reference compound),Kir2.1; peptide at 20 μM,89%
same,Activity of 5HT3a with peptide (percentage of the reference compound),5HT3a,88%
same,"Activity of 5HT3a with peptide, expressed as a percentage of the reference compound",5HT3a,92%
same,"Activity of a3b4 with peptide, expressed as a percentage of the reference compound",α3β4; peptide at 0.2 μM,85%
same,Activity of a3b4 with peptide (percentage of the reference compound),α3β4; peptide at 20 μM,88%
same,"Activity of NR2B with peptide, expressed as a percentage of the reference compound",NR2B; peptide at 0.2 μM,118%
same,Activity of NR2B with peptide (percentage of the reference compound),NR2B; peptide at 20 μM,72%
same,"Activity of Nav1.7 with peptide, expressed as a percentage of the reference compound",Nav1.7; [1],89%
same,"Activity of Nav1.7 with peptide, expressed as a percentage of the reference compound",Nav1.7; [2],74%
same,Activity of Nav1.7 with peptide (percentage of the reference compound),Nav1.7; [1],61%
same,Activity of Nav1.7 with peptide (percentage of the reference compound),Nav1.7; [2],91%
same,"Activity of TRPA1 with peptide, expressed as a percentage of the reference compound",TRPA1; peptide at 0.2 μM,106%
same,Activity of TRPA1 with peptide (percentage of the reference compound),TRPA1; peptide at 20 μM,92%
same,"Activity of Kv1.2 with peptide, expressed as a percentage of the reference compound",Kv1.2; peptide at 0.2 μM,34%
same,Activity of Kv1.2 with peptide (percentage of the reference compound),Kv1.2; peptide at 20 μM,39%
same,"Activity of Kv1.3 with peptide, expressed as a percentage of the reference compound",Kv1.3; peptide at 0.2 μM,8%
same,Activity of Kv1.3 with peptide (percentage of the reference compound),Kv1.3; peptide at 20 μM,1%
same,"Activity of Kv1.1 with peptide, expressed as a percentage of the reference compound",Kv1.1; peptide at 0.2 μM,114%
same,Activity of Kv1.1 with peptide (percentage of the reference compound),Kv1.1; peptide at 20 μM,68%
same,"Activity of a4b2 with peptide, expressed as a percentage of the reference compound",α4β2; peptide at 0.2 μM,95%
same,Activity of a4b2 with peptide (percentage of the reference compound),α4β2; peptide at 20 μM,87%
same,"Activity of Nav1.5 with peptide, expressed as a percentage of the reference compound",Nav1.5; [3],95%
same,"Activity of Nav1.5 with peptide, expressed as a percentage of the reference compound",Nav1.5; [4],93%
same,Activity of Nav1.5 with peptide (percentage of the reference compound),Nav1.5; [3],102%
same,Activity of Nav1.5 with peptide (percentage of the reference compound),Nav1.5; [4],101%
same,"Activity of hERG with peptide, expressed as a percentage of the reference compound",hERG; peptide at 0.2 μM,97%
same,Activity of hERG with peptide (percentage of the reference compound),hERG; peptide at 20 μM,76%
same,"Activity of Cav2.2 with peptide, expressed as a percentage of the reference compound",Cav2.2; peptide at 0.2 μM,104%
same,Activity of Cav2.2 with peptide (percentage of the reference compound),Cav2.2; peptide at 20 μM,104%
same,"Activity of Kv2.1 with peptide, expressed as a percentage of the reference compound",Kv2.1; peptide at 0.2 μM,80%
same,Activity of Kv2.1 with peptide (percentage of the reference compound),Kv2.1; peptide at 20 μM,87%
same,"Activity of Cav2.1 with peptide, expressed as a percentage of the reference compound",Cav2.1; peptide at 0.2 μM,103%
same,Activity of Cav2.1 with peptide (percentage of the reference compound),Cav2.1; peptide at 20 μM,108%
same,"Activity of NR2A with peptide, expressed as a percentage of the reference compound",NR2A; peptide at 0.2 μM,102%
same,Activity of NR2A with peptide (percentage of the reference compound),NR2A; peptide at 20 μM,95%
same,"Activity of TRPV1 with peptide, expressed as a percentage of the reference compound",TRPV1; peptide at 0.2 μM,95%
same,Activity of TRPV1 with peptide (percentage of the reference compound),TRPV1; peptide at 20 μM,81%
